Experimental data from PMC2728148.
Residue numbers refer to the chain shown, from its start. Like-named read-outs stand apart in the source and are kept apart here.

B1: 34G/34C (dsDNA)
DNA 1: GTACCCGGGGATCCGTACGGCGCATCAGCTGCAG
DNA 2: CTGCAGCTGATGCGCCGTACGGATCCCCGGGTAC
B2: DNA50/DNA49 fork (dsDNA)
DNA 1: GGGACGCGTCGGCCTGGCACGTCGGCCGCTGCGGCCAGGCACCCGATGGC
DNA 2: TTTGTTTGTTTGTTTGTTTGTTTGCCGACGTGCCAGGCCGACGCGTCCC
B3: RNA50/RNA49 fork (dsRNA)
RNA 1: B2 DNA 1 with T9U, T15U, T22U, T30U, T47U
RNA 2: UUUGUUUGUUUGUUUGUUUGUUUGCCGACGUGCCAGGCCGACGCGUCCC
B4: DNA50/RNA49 fork (DNA:RNA)
DNA: B2 DNA 1
RNA: B3 RNA 2

Key:
Assay in all cases: EMSA
[1] = target: T1, CSB wild-type (Homo sapiens, UniProt Q03468 1-1493)
[2] = target: T1, CSB wild-type; remark: listed apart in the source
[3] = target: T1, CSB wild-type; remark: listed apart in the source
[4] = target: T1, CSB wild-type; remark: listed apart in the source

T1 sequence (Q03468 whole entry): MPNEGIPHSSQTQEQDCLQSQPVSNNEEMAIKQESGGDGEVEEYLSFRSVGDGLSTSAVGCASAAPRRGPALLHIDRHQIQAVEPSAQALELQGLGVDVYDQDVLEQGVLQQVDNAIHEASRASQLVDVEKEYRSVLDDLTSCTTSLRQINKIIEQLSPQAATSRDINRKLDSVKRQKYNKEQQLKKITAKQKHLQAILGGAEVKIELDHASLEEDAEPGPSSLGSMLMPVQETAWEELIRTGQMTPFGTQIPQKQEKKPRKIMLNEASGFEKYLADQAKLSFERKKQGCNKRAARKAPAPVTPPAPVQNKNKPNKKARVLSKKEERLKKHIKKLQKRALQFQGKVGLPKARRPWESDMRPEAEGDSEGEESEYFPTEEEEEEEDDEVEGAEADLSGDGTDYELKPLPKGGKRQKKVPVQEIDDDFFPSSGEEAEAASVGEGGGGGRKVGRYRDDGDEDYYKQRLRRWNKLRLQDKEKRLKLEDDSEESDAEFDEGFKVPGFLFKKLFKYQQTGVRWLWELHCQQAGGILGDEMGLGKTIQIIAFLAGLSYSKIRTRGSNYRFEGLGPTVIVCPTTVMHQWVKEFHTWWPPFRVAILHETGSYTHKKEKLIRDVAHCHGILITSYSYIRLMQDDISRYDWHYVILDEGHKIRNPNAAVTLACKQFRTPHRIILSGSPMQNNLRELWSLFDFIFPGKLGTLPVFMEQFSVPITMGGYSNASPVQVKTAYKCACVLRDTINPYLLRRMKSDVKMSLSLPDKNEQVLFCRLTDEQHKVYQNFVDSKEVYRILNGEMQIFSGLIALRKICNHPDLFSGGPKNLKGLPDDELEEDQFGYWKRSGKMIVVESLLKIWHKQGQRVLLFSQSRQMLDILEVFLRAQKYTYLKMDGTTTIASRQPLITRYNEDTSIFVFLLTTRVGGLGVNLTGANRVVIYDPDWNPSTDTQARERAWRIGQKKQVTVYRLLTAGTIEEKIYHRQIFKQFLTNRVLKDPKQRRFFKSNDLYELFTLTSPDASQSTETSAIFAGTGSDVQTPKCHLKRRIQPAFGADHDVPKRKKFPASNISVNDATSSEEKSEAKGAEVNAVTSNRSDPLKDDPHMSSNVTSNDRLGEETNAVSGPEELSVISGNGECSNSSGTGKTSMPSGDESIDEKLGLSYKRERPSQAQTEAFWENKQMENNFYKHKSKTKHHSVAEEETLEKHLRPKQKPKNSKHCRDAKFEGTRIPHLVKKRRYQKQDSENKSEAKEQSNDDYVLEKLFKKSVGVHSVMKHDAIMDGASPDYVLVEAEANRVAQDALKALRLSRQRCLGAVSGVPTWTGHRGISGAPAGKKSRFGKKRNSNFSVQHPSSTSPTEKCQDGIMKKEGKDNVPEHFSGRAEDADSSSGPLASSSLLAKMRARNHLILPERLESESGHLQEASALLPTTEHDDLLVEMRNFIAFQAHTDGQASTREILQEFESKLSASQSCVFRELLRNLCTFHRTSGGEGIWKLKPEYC

| Binder | Kd [1] [nM] | Kd [2] [nM] | Kd [3] [nM] | Kd [4] [nM] |
| --- | --- | --- | --- | --- |
| B1 | 10.7 ± 0.6 | 13.7 ± 1.1 | 20.5 ± 5.2 | – |
| B2 | – | – | – | 5.9 ± 0.6 |
| B3 | – | – | – | 3.6 ± 1.5 |
| B4 | – | – | – | 13.4 ± 3.3 |
